In paper PMC5019145 (Molecular microbiology, 2015):
Each block holds one molecule with its values, some of them ahead of it.

Columns and labels:
SaFlaH [1] = biological target: SaFlaH (Sulfolobus acidocaldarius, UniProt Q4J9K9, K33A); experiment: fluorescence titration; type: binding; conditions: 1 µM protein, 5 mM MnCl2, pH 6.2, 25 °C; labelled compound
SaFlaH [2] = biological target: SaFlaH (Sulfolobus acidocaldarius, UniProt Q4J9K9, D122N); experiment: fluorescence titration; type: binding; conditions: 1 µM protein, 5 mM MnCl2, pH 6.2, 25 °C; labelled compound
SaFlaH (Sulfolobus acidocaldarius, UniProt Q4J9K9, D122N), sequence (Q4J9K9 whole entry D122N): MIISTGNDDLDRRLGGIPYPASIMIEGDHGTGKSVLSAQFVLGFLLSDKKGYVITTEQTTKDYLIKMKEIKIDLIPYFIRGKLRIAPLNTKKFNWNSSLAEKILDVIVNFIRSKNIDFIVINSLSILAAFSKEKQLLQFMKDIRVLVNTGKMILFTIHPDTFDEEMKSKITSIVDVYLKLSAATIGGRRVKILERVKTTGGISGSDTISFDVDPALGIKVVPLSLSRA

[3] = biological target: Pyrococcus furiosus FlaH, wild type (PfFlaH) (Pyrococcus furiosus); experiment: MST
[4] = biological target: T1, StrepII-tagged Sulfolobus acidocaldarius FlaH (StrepII-FlaH) (Sulfolobus acidocaldarius, UniProt Q4J9K9 1-228); experiment: pull-down
T1 sequence: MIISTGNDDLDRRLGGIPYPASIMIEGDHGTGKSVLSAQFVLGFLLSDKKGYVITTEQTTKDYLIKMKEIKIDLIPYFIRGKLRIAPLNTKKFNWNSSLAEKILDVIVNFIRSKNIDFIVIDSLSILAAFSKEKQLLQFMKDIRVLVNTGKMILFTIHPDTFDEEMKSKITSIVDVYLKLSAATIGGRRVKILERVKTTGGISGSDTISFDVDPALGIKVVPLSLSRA

SaFlaH (Sulfolobus acidocaldarius, UniProt Q4J9K9, K33A), sequence (Q4J9K9 whole entry K33A): as the sequence (Q4J9K9 whole entry D122N) above, with K33A, N122D counted along it

Molecule: CNc1ccccc1C(=O)O[C@H]1[C@@H](O)[C@H](n2cnc3c(N)ncnc32)O[C@@H]1COP(=O)(O)OP(=O)(O)OP(=O)(O)O (mixture of isomers) [MANT-ATP, 2’-/3’-O-(N’-methylanthraniloyl) adenosine-5’-O-triphosphate]
fluorescence titration (FRET from tryptophan to MANT) (SaFlaH [1]): SaFlaH^K33A and SaFlaH^D122N only bound MANT-ATP with strongly reduced affinity
fluorescence titration (FRET from tryptophan to MANT) (SaFlaH [2]): SaFlaH^K33A and SaFlaH^D122N only bound MANT-ATP with strongly reduced affinity

Molecule: Pyrococcus furiosus FlaI (PfFlaI) (enzyme)
Kd [3]: 1000 nM

Results, then the molecule that gave them:

binding result [4]: binds
B1: His6-tagged Sulfolobus acidocaldarius FlaXc (FlaX without its first 37 residues) (domain or fragment, UniProt Q4J9K6 38-250, looked up)
chain: KRVQTQQSPQNISQEQRFPTQQKPANDETSKYSSDSIEKALKDVLGKMDKKENELLTNITNSFNEMKKLIENLNSAVEELALSVKASESDSSSPFNTIIQQEEEHVSREISTVSQLVGSNNPNNVNLTWFIKSCVLLEIMEYDEEKIKQLYELGYVSSDDMFTILRILSFIKNRKITAKELASIAANIAESYSSLTPEIKKYIMILEGGGVNG

binding result [4]: binds
B2: His6-tagged Sulfolobus acidocaldarius FlaXcc1 (FlaXc without the N-terminal domain 38-86) (domain or fragment, UniProt Q4J9K6 87-250, looked up)
chain: KKENELLTNITNSFNEMKKLIENLNSAVEELALSVKASESDSSSPFNTIIQQEEEHVSREISTVSQLVGSNNPNNVNLTWFIKSCVLLEIMEYDEEKIKQLYELGYVSSDDMFTILRILSFIKNRKITAKELASIAANIAESYSSLTPEIKKYIMILEGGGVNG
